Source: publication PMC3205837

Key:
Assay in all cases: EMSA
GST-γ-tubulin;His-E2F1 = GST-γ-tubulin;His-E2F1 (human;human, UniProt P23258;Q01094 1-451;1-437, |)
GST-γ-tubulin = GST-γ-tubulin (human, UniProt P23258 1-451)
GST-N-γtubulin1-333 = GST-N-γtubulin1-333 (human, UniProt P23258 1-333)
GST-N-γtubulin1-333, sequence (P23258 1-333): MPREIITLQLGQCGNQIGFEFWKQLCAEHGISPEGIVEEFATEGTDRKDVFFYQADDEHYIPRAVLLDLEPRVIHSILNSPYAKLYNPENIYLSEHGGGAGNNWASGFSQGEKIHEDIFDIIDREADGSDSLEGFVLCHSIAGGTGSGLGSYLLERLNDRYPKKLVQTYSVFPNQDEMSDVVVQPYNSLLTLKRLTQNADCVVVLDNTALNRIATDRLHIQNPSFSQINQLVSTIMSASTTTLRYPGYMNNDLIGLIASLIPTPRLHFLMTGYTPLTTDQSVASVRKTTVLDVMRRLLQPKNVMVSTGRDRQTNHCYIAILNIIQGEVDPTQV

GST-γ-tubulin, sequence (P23258 whole entry): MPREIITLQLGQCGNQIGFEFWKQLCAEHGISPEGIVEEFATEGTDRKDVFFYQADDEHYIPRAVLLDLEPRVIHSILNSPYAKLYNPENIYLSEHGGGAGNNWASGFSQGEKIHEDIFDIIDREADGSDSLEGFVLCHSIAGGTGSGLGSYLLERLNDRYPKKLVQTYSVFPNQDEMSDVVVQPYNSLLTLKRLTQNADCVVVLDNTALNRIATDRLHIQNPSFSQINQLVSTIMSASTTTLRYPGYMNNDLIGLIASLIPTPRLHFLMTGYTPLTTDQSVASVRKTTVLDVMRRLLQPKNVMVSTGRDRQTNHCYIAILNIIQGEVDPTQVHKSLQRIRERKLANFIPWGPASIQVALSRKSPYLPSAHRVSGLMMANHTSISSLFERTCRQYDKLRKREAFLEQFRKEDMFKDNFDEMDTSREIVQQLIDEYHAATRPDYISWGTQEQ
GST-γ-tubulin;His-E2F1, sequence (P23258 whole entry, chain 1 of 2): as the sequence (P23258 whole entry) above
GST-γ-tubulin;His-E2F1, sequence (Q01094 whole entry, chain 2 of 2): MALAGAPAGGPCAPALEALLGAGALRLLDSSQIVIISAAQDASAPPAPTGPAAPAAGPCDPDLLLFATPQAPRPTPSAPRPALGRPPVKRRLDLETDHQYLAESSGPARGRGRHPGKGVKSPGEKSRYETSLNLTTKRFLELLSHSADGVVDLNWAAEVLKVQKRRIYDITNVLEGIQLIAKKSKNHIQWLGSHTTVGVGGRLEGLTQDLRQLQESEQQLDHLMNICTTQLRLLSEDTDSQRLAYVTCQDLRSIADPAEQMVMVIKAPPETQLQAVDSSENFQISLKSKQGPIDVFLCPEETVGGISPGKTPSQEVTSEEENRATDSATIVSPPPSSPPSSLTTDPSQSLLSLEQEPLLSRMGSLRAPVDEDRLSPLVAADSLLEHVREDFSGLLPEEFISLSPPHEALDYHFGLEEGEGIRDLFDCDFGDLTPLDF

B1: DHFR promoter E2F site, wild type (dsDNA)
DNA 1: AGCTTCTAGTGCAATTTCGCGCCAAACTTGG
DNA 2: AATTCCAAGTTTGGCGCGAAATTGCACTAGA
- binding result (GST-γ-tubulin;His-E2F1): binds
- binding result (GST-γ-tubulin): binds
- binding result (GST-N-γtubulin1-333): no binding
